Results reported in patent US5723579A, “Fibrinogen binding peptides” (Bayer Corporation, priority 1996, dated 1998).
Values belong to the substance of their own block, whether it stands above or below them. No end group written: not given here.

Tests used:
[1] = target: T1, fibrinogen (Homo sapiens, UniProt P02671+P02675+P02679); assay: Confirmatory binding assay in column chromatographic format: fibrinogen applied to peptide resins, NaCl wash and acid eluate quantified by A280; settings: for 1 M NaCl Eluate, integration of the absorbance at 280 nm / 2% Acetic Acid Eluate, integration of the absorbance at 280 nm: truncations on A-Totda-Toyopearl, Table 6; for 2% Acetic Acid Eluate, A280: peptide synthesized on A-Totda-Toyopearl, Table 2
T1 construct: purchased Sigma Chemical Co. (St. Louis, Mo.) and Chromogenix AB (Molndal, Sweden)
T1 sequence (P02671 20-644 isoform P02671-2 limits assumed): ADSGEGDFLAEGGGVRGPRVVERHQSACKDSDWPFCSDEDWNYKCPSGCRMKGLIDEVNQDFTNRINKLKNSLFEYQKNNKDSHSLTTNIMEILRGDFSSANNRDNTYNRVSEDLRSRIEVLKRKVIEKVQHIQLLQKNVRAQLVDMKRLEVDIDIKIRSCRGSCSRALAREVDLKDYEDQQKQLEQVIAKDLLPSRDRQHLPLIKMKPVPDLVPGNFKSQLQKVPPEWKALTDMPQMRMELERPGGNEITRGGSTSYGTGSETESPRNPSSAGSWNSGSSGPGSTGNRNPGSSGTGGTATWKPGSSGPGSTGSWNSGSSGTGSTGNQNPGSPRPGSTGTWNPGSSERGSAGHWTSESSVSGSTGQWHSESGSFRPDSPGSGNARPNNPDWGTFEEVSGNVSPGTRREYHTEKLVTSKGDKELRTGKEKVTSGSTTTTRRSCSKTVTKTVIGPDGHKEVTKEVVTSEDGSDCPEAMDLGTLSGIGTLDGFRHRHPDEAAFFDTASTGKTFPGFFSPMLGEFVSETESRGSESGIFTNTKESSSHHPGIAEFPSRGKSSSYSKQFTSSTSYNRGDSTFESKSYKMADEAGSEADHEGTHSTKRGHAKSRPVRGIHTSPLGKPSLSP
T1 sequence (P02675 31-491): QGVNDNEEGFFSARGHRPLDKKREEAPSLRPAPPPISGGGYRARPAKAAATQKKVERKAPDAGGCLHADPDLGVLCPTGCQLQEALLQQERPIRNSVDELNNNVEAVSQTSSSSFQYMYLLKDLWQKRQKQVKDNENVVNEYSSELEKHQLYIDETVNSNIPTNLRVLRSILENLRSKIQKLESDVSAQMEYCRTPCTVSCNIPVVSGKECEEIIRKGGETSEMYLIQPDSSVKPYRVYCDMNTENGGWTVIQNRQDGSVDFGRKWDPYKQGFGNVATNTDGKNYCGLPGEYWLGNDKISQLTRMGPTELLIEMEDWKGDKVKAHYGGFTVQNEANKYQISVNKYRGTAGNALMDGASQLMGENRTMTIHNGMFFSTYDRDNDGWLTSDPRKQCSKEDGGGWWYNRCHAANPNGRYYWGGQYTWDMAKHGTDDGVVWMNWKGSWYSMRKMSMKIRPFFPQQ
T1 sequence (P02679 27-453): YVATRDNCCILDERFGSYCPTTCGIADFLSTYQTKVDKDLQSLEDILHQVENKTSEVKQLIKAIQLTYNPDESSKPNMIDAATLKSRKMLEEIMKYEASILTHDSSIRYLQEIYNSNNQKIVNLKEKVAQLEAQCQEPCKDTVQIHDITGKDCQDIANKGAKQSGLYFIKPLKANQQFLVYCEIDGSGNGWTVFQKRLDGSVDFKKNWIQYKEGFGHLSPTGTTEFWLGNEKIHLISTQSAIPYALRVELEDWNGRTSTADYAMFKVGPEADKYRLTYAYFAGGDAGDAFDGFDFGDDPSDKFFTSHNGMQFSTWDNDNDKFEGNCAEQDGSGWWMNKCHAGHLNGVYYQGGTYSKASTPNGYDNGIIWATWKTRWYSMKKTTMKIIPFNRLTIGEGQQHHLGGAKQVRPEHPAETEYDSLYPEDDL
Method: Confirmatory binding assays were performed in a column chromatographic format on a microbore HPLC using individual peptide sequences synthesized directly onto the Toyopearl 650M Chelate resin which had been modified with Totda followed by an alanine residue (A-Totda-Toyopearl), at a final substitution density of 0.2 mmole/g resin. […] The endpoint was a dose-dependent increase in the acid eluate in the fibrinogen contactings, and quantification was by integration of the absorbance at 280 nm (Table 2).
Peptides PLLVPL and FLLVPL, with and without an N-acetylated amino terminus, were synthesized directly onto Ala-Totda-Toyopearl at a density of approximately 0.2 mmole/g resin. The ability of these resins to bind fibrinogen was determined as above. An unblocked (free) amino terminus was required for binding fibrinogen to PLLVPL-A-Totda-Toyopearl (Table 5) (SEQ ID NO:2). Similar results were obtained in a separate experiment by using FLLVPL-A-Totda-Toyopearl (Table 5) (SEQ ID NO:1).
Truncations from the carboxyl- and amino- termini of PLLVPL and FLLVPL (SEQ ID NOS 2 and 1, respectively) synthesized directly on A-Totda-Toyopearl resin in order to identify the minimum sequence necessary for binding.

[2] = target: T1, fibrinogen; assay: Isothermal titration calorimetry of peptide binding to purified fibrinogen; settings: solution phase binding, soluble peptide; 30° C., 30 mM phosphate buffer, pH 7.0
Method: Isothermal titration colorimetry was performed using either purified, soluble peptides (5 mM) or peptides synthesized directly on A-Totda-Togopearl (1.4mM) and with purified fibrinogen (50 μM) by a modification of the technique of Tyler-Cross et at. (1993). All measurements were performed at 30° C. in 30 mM phosphate buffer, pH 7.0 with an Omega titration colorimeter (Microcal, Inc., Northampton, Mass.).
Solution phase binding isotherms were performed on the purified soluble peptides and purified fibrinogen by using isothermal titration calorimetry (Table 3). […] A change from P to F at the amino terminus lowered the dissociation constant over 150-fold. PLLVPL (SEQ ID NO:2) bound to approximately 3 to 4 sites per fibrinogen molecule. […] Both peptide binding reactions were endothermic as indicated by the positive enthalpy (ΔH), and were thermodynamically favorable (negative ΔG) under the conditions tested. Unusually high entropic terms indicate a conformational change may be driving the association of peptide with fibrinogen.

[3] = target: T1, fibrinogen; assay: Characterization of binding interaction: fibrinogen (25 mg) on 5 ml FLLVPL resin column, binding and elution under varied conditions
Method: Peptide FLLVPL was synthesized directly on A-Totda-Toyopearl at a density of 0.2 mmole/g resin. A column of dimensions 1.0×6.4 cm (approximately 5 ml column volume) was equilibrated with either 10 mM HEPES or 10 mM sodium acetate, pH 6.8, 1.0 mM EGTA and either 0.1, 0.2 or 1.0M NaCl. Fibrinogen (25 mg; 5.0 ml) was applied to the column in 10 mM sodium acetate, pH 6.8 and 1 mM EGTA containing 0.1M NaCl.
Fibrinogen (25 mg; 5.0 ml) was applied to the column in 10 mM sodium acetate, pH 6.8 and 1 mM EGTA containing 0.1M NaCl.
No elution of fibrinogen (applied to the column in 10 mM sodium acetate, pH 6.8 and 1 mM EGTA containing 0.1M NaCl) was observed by using the hydrophilic compound, polyethylene glycol (10%). Only approximately 8 percent of the applied fibrinogen was eluted by increasing the pH to 10 with 10 mM sodium borate. Further increases in pH with a linear gradient (pH 6.8 to 12.0) released approximately 25 percent of the fibrinogen.
In order to assess further the contribution of hydrophobic interactions to the binding mechanism of FLLVPL (SEQ ID NO.:1) to fibrinogen, fibrinogen (25 mg; 5.0 ml) was applied to the peptide under high salt conditions favorable to hydrophobic bonding and release under low ionic strength. The peptide resin was equilibrated with 10 mM sodium acetate, 1.0M NaCl, and 1.0 mM EGTA, pH 6.8. Five milliliters of a solution of fibrinogen (5 mg/ml) in the same buffer was applied to the column, and washed with two column volumes of the same buffer. The resin was then contacted with 10 column volumes of 10 mM sodium acetate, pH 4.0 followed by 2% acetic acid (4 column volumes). […] Low ionic strength and low pH (4.0) released approximately 78.3 percent of the protein. However, only 5% of the applied protein was eluted in a second experiment when the 10 mM sodium acetate, pH 4.0 solution contained 0.1M NaCl. Acid treatment released the remainder of the recovered protein in both experiments.

1 M NaCl Eluate, integration of the absorbance at 280 nm ([1]; 250 μg fibrinogen applied): 0.00 ×10^6 | 2% Acetic Acid Eluate, integration of the absorbance at 280 nm ([1]; 250 μg fibrinogen applied): 1.51 ×10^6 | 1 M NaCl Eluate, integration of the absorbance at 280 nm ([1]; 500 μg fibrinogen applied): 0.00 ×10^6 | 2% Acetic Acid Eluate, integration of the absorbance at 280 nm ([1]; 500 μg fibrinogen applied): 1.79 ×10^6 | 1 M NaCl Eluate, integration of the absorbance at 280 nm ([1]; 1000 μg fibrinogen applied): 0.50 ×10^6 | 2% Acetic Acid Eluate, integration of the absorbance at 280 nm ([1]; 1000 μg fibrinogen applied): 4.99 ×10^6
Substance: Phe-Leu-Leu-Val (FLLV; printed: Phe-Leu-Leu-Val) [truncation of FLLVPL on A-Totda-Toyopearl resin]

Kd [2]: 4.5 µM | applied protein eluted ([3]; 10 mM sodium acetate, pH 4.0 containing 0.1M NaCl (second experiment)): 5% | applied protein (A280) not interacting with the column, recovered in flow through and wash ([3]; applied in 10 mM sodium acetate, 1.0M NaCl, 1.0 mM EGTA, pH 6.8): Approximately 7.2% | release of the applied protein ([3]; elution with ionic detergent (2% sodium cholate)): 14% | release of the applied protein ([3]; elution with nonionic detergent (5% Tween-20) in the binding buffer): 40% | fibrinogen released ([3]; linear pH gradient (pH 6.8 to 12.0)): approximately 25% | protein released ([3]; low ionic strength, 10 mM sodium acetate, pH 4.0, after high salt application): approximately 78.3% | applied absorbance (280 nm) that failed to bind the column ([3]; pH 6.8, 1.0 mM EGTA, column equilibrated with 0.1, 0.2 or 1.0M NaCl): 5 to 8% | release of fibrinogen ([3]; pH gradient from 6.8 to 4.0, release at pH 4.2): approximately 66% | applied fibrinogen eluted ([3]; pH increased to 10 with 10 mM sodium borate): approximately 8%
Substance: FLLVPL-NH2 [FLLVPL, Phe-Leu-Leu-Val-Pro-Leu]

2% Acetic Acid Eluate, A280 ([1]; 250 μg fibrinogen applied): 0.02 | 2% Acetic Acid Eluate, A280 ([1]; 500 μg fibrinogen applied): 0.09 | 2% Acetic Acid Eluate, A280 ([1]; 1000 μg fibrinogen applied): 0.12
Substance: AALVPL: peptide sequence AALVPL synthesized on A-Totda-Toyopearl (not fully specified (C-terminus))

Kd [2]: 688 µM
Substance: PLLVPL-NH2 [PLLVPL, Pro-Leu-Leu-Val-Pro-Leu]

2% Acetic Acid Eluate, A280 ([1]; 250 μg fibrinogen applied): 0.72 | 2% Acetic Acid Eluate, A280 ([1]; 500 μg fibrinogen applied): 1.35 | 2% Acetic Acid Eluate, A280 ([1]; 1000 μg fibrinogen applied): 2.78
Substance: Phe-Ala-Leu-Val- Pro-Leu (FALVPL; not fully specified (C-terminus); printed as Phe-Ala-Leu-Val-Pro-Leu)

2% Acetic Acid Eluate, A280 ([1]; 250 μg fibrinogen applied): 0.02 | 2% Acetic Acid Eluate, A280 ([1]; 500 μg fibrinogen applied): 0.09 | 2% Acetic Acid Eluate, A280 ([1]; 1000 μg fibrinogen applied): 0.12
Substance: ALLVPL: peptide sequence ALLVPL synthesized on A-Totda-Toyopearl (not fully specified (C-terminus))

2% Acetic Acid Eluate, A280 ([1]; 250 μg fibrinogen applied): 0.01 | 2% Acetic Acid Eluate, A280 ([1]; 500 μg fibrinogen applied): 0.06 | 2% Acetic Acid Eluate, A280 ([1]; 1000 μg fibrinogen applied): 0.13
Substance: PALVPL: peptide sequence PALVPL synthesized on A-Totda-Toyopearl (not fully specified (C-terminus))
